Laboratory results from PMC5749951, “Mechanistic insights into the active site and allosteric communication pathways in human nonmuscle myosin-2C” (eLife, 2017).
Where a chain is given by its changes, count along the chain named. In names and notes the source's numbering stands.

B1: human nonmuscle myosin-2C motor domain (amino acids 1-799) directly fused to spectrin repeats 1 and 2 from Dictyostelium alpha-actinin, C-terminal Flag-tag (domain or fragment)
chain: MAAVTMSVPGRKAPPRPGPVPEAAQPFLFTPRGPSAGGGPGSGTSPQVEWTARRLVWVPSELHGFEAAALRDEGEEEAEVELAESGRRLRLPRDQIQRMNPPKFSKAEDMAELTCLNEASVLHNLRERYYSGLIYTYSGLFCVVINPYKQLPIYTEAIVEMYRGKKRHEVPPHVYAVTEGAYRSMLQDREDQSILCTGESGAGKTENTKKVIQYLAHVASSPKGRKEPGVPGELERQLLQANPILEAFGNAKTVKNDNSSRFGKFIRINFDVAGYIVGANIETYLLEKSRAIRQAKDECSFHIFYQLLGGAGEQLKADLLLEPCSHYRFLTNGPSSSPGQERELFQETLESLRVLGFSHEEIISMLRMVSAVLQFGNIALKRERNTDQATMPDNTAAQKLCRLLGLGVTDFSRALLTPRIKVGRDYVQKAQTKEQADFALEALAKATYERLFRWLVLRLNRALDRSPRQGASFLGILDIAGFEIFQLNSFEQLCINYTNEKLQQLFNHTMFVLEQEEYQREGIPWTFLDFGLDLQPCIDLIERPANPPGLLALLDEECWFPKATDKSFVEKVAQEQGGHPKFQRPRHLRDQADFSVLHYAGKVDYKANEWLMKNMDPLNDNVAALLHQSTDRLTAEIWKDVEGIVGLEQVSSLGDGPPGGRPRRGMFRTVGQLYKESLSRLMATLSNTNPSFVRCIVPNHEKRAGKLEPRLVLDQLRCNGVLEGIRICRQGFPNRILFQEFRQRYEILTPNAIPKGFMDGKQACEKMIQALELDPNLYRVGQSKIFFRAGVLAQLEEEREQTKSDYLKRANELVQWINDKQASLESRDFGDSIESVQSFMNAHKEYKKTEKPPKGQEVSELEAIYNSLQTKLRLIKREPFVAPAGLTPNEIDSTWSALEKAEQEHAEALRIELKRQKKIAVLLQKYNRILKKLENWATTKSVYLGSNETGDSITAVQAKLKNLEAFDGECQSLEGQSNSDLLSILAQLTELNYNGVPELTERKDTFFAQQWTGVKSSAETYKNT
notes: nonmuscle myosin-2C heavy chain (gene product of MYH14), human, motor domain, amino acids 1-799; alpha-actinin, Dictyostelium discoideum, spectrin repeats 1 and 2, used as artificial lever arm; Monomeric motor domain construct; also called NM2C; Hs NM2C; source: Sf9/baculovirus system, purified to electrophoretic homogeneity
B2: human nonmuscle myosin-2C motor domain (amino acids 1-799) R788E fused to spectrin repeats 1 and 2 from Dictyostelium alpha-actinin, C-terminal Flag-tag (domain or fragment)
chain: B1 chain with R788E
notes: nonmuscle myosin-2C heavy chain (gene product of MYH14), human, motor domain, amino acids 1-799, with R788E; alpha-actinin, Dictyostelium discoideum, spectrin repeats 1 and 2, used as artificial lever arm; Point mutant made by people on the fusion construct m1; also called Hs R788E; R788E (kinetic studies); source: Sf9/baculovirus system, purified to electrophoretic homogeneity
B3: human nonmuscle myosin-2C motor domain (amino acids 1-799) R788K fused to spectrin repeats 1 and 2 from Dictyostelium alpha-actinin, C-terminal Flag-tag (domain or fragment)
chain: B1 chain with R788K
notes: nonmuscle myosin-2C heavy chain (gene product of MYH14), human, motor domain, amino acids 1-799, with R788K; alpha-actinin, Dictyostelium discoideum, spectrin repeats 1 and 2, used as artificial lever arm; Point mutant made by people on the fusion construct m1; also called Hs R788K; R788K (kinetic studies); source: Sf9/baculovirus system, purified to electrophoretic homogeneity

Each binder was assayed against T1, filamentous actin (F-actin) (UniProt P68135 1-377) (assay: stopped-flow light scattering; myosin motor domain binding to F-actin in a stopped-flow system; salt free stopped-flow buffer; samples treated with apyrase prior to the assay (rigor conditions)). Conditions: both partners purified.

| Binder | kon [M⁻¹ s⁻¹] |
| --- | --- |
| B1 | 2.49e+06 ± 70000 |
| B2 | 660000 ± 30000 |
| B3 | 1.65e+06 ± 30000 |

The binders below were run against T2, pyrene-labeled filamentous actin (UniProt P68135 1-377, pyrene label) (assay: stopped-flow pyrene-actin fluorescence; dissociation of the myosin motor domain from pyrene-actin; salt free stopped-flow buffer; samples treated with apyrase prior to the assay (rigor conditions)). Conditions: both partners purified.

| Binder | koff [s⁻¹] |
| --- | --- |
| B1 | ~0.15 |
| B2 | ~0.031 |
| B3 | 0.04 to 0.07 |

These binders were tested against T2, pyrene-labeled filamentous actin (assay: stopped-flow pyrene-actin fluorescence; dissociation of the myosin motor domain from pyrene-actin in the presence of ADP; salt free stopped-flow buffer). Conditions: both partners purified.

| Binder | koff [s⁻¹] |
| --- | --- |
| B1 | ~0.004 |
| B2 | ~0.002 |
| B3 | 0.067 to 0.11 |

These binders were tested against T1, filamentous actin (F-actin) (assay: stopped-flow light scattering + other: stopped-flow pyrene-actin fluorescence; dissociation equilibrium constant calculated as k-A/k+A; absence of nucleotide (rigor); salt free stopped-flow buffer). Conditions: both partners purified.

| Binder | Kd [nM] |
| --- | --- |
| B1 | ~60 |
| B2 | ~47 |
| B3 | 24 to 42 |

Each binder was assayed against T1, filamentous actin (F-actin) (assay: stopped-flow light scattering + other: stopped-flow pyrene-actin fluorescence; dissociation equilibrium constant calculated as k-DA/k+DA; presence of ADP; salt free stopped-flow buffer). Conditions: both partners purified.

| Binder | Kd [nM] |
| --- | --- |
| B1 | ~8 |
| B2 | ~9 |
| B3 | 26 to 43 |

The binders below were run against T1, filamentous actin (F-actin) (assay: stopped-flow light scattering; myosin motor domain binding to F-actin in the presence of ADP; salt free stopped-flow buffer). Conditions: both partners purified.

| Binder | kon [M⁻¹ s⁻¹] |
| --- | --- |
| B1 | 530000 ± 10000 |
| B2 | 210000 ± 10000 |
| B3 | 2.53e+06 ± 50000 |
